tested on: Escherichia coli TOP10; test: shrunken log2 fold change of peptide-encoding DNA abundance (4.5 h post-induction vs induction); higher = less antimicrobial activity (less host growth inhibition); details: time post-induction: 4.5 h; library: site-saturation at positions 5, 18, 19, 20
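Also: peptides expressed intracellularly from a pBAD plasmid library in pooled LB shake-flask culture, induced with 0.3% L-arabinose, DNA abundance read by NGS, three biological replicates, DESeq2 with apeglm shrinkage.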

Row | Sequence | shrunken log2 fold change
1 | RRIRNRPPRLPRPRPRPGHVPRP | -0.0552
2 | RRIRCRPPRLPRPRPRPQNWPRP | -0.0693
3 | RRIRVRPPRLPRPRPRPLCWPRP | 0.00832
4 | RRIRRRPPRLPRPRPRPTALPRP | 0.554
5 | RRIRIRPPRLPRPRPRPRMKPRP | -0.0587
6 | RRIRERPPRLPRPRPRPMHQPRP | -0.452
7 | RRIRGRPPRLPRPRPRPFRQPRP | 0.124
8 | RRIRARPPRLPRPRPRPGECPRP | 0.298
9 | RRIRKRPPRLPRPRPRPWMYPRP | -0.122
10 | RRIRNRPPRLPRPRPRPWYLPRP | -0.0197
11 | RRIRFRPPRLPRPRPRPFYVPRP | -0.417
12 | RRIRIRPPRLPRPRPRPHYVPRP | -0.342
13 | RRIRPRPPRLPRPRPRPLPDPRP | 0.179
14 | RRIRWRPPRLPRPRPRPFTSPRP | -0.0735
15 | RRIRSRPPRLPRPRPRPRILPRP | -0.34
16 | RRIRARPPRLPRPRPRPHTNPRP | -0.227
17 | RRIRSRPPRLPRPRPRPSHLPRP | -0.265
18 | RRIRARPPRLPRPRPRPEAMPRP | 0.805
19 | RRIRERPPRLPRPRPRPKHCPRP | 0.0411
20 | RRIRRRPPRLPRPRPRPEQCPRP | -0.00836
21 | RRIRARPPRLPRPRPRPTDRPRP | 0.0653
22 | RRIRYRPPRLPRPRPRPPPMPRP | 0.46

Row | Sequence | shrunken log2 fold change
23 | RRIRMRPPRLPRPRPRPCPDPRP | -0.0886
24 | RRIRWRPPRLPRPRPRPNIGPRP | 0.138
25 | RRIRTRPPRLPRPRPRPFRTPRP | -0.146
26 | RRIRWRPPRLPRPRPRPNEPPRP | -0.000964
27 | RRIRGRPPRLPRPRPRPSSFPRP | 0.406
28 | RRIRCRPPRLPRPRPRPLHTPRP | -0.0899
29 | RRIRCRPPRLPRPRPRPEMVPRP | -0.0828
30 | RRIRQRPPRLPRPRPRPTWLPRP | 0.295
31 | RRIRQRPPRLPRPRPRPECRPRP | 0.414
32 | RRIRMRPPRLPRPRPRPYYHPRP | -0.459
33 | RRIRMRPPRLPRPRPRPRTLPRP | 0.28
34 | RRIRERPPRLPRPRPRPDPPPRP | 0.32
35 | RRIRSRPPRLPRPRPRPDCRPRP | 0.0345
36 | RRIRFRPPRLPRPRPRPDYNPRP | -0.422
37 | RRIRSRPPRLPRPRPRPSWIPRP | -0.363
38 | RRIRGRPPRLPRPRPRPHYYPRP | -0.119
39 | RRIRQRPPRLPRPRPRPWFIPRP | -0.302
40 | RRIRTRPPRLPRPRPRPAPNPRP | 0.0436
41 | RRIRTRPPRLPRPRPRPYFSPRP | -0.156
42 | RRIRFRPPRLPRPRPRPDYQPRP | -0.268
43 | RRIRCRPPRLPRPRPRPLRCPRP | 0.198
44 | RRIRFRPPRLPRPRPRPAPEPRP | 0.81

Row | Sequence | shrunken log2 fold change
45 | RRIRSRPPRLPRPRPRPITTPRP | -0.578
46 | RRIRRRPPRLPRPRPRPPSHPRP | 0.586
47 | RRIRQRPPRLPRPRPRPHPFPRP | -0.29
48 | RRIRFRPPRLPRPRPRPVGFPRP | -0.0508
49 | RRIRKRPPRLPRPRPRPITTPRP | -0.174
50 | RRIRGRPPRLPRPRPRPQTCPRP | 0.403
51 | RRIRPRPPRLPRPRPRPKMCPRP | 0.0196
52 | RRIRYRPPRLPRPRPRPPWYPRP | -0.786
53 | RRIRCRPPRLPRPRPRPRREPRP | 0.746
54 | RRIRVRPPRLPRPRPRPSGDPRP | -0.251
55 | RRIRFRPPRLPRPRPRPIAIPRP | -0.149
56 | RRIRVRPPRLPRPRPRPCPHPRP | -0.0391
57 | RRIRMRPPRLPRPRPRPIHEPRP | -0.301
58 | RRIRGRPPRLPRPRPRPDWDPRP | 0.596
59 | RRIRGRPPRLPRPRPRPVNLPRP | -0.152
60 | RRIRCRPPRLPRPRPRPCRHPRP | -0.196
61 | RRIRTRPPRLPRPRPRPMAWPRP | 0.114
62 | RRIRNRPPRLPRPRPRPAPSPRP | 0.271
63 | RRIRYRPPRLPRPRPRPRMCPRP | -0.0134
64 | RRIRARPPRLPRPRPRPMPAPRP | 0.722
65 | RRIRHRPPRLPRPRPRPGKYPRP | -0.0822
66 | RRIRDRPPRLPRPRPRPEINPRP | 0.648

Row | Sequence | shrunken log2 fold change
67 | RRIRCRPPRLPRPRPRPHIQPRP | -0.73
68 | RRIRLRPPRLPRPRPRPPDCPRP | 0.0366
69 | RRIRYRPPRLPRPRPRPIWTPRP | 0.066
70 | RRIRQRPPRLPRPRPRPIMFPRP | -0.144
71 | RRIRFRPPRLPRPRPRPFAKPRP | -0.026
72 | RRIRHRPPRLPRPRPRPKCSPRP | -0.0294
73 | RRIRLRPPRLPRPRPRPSLIPRP | -0.217
74 | RRIRMRPPRLPRPRPRPNQWPRP | 2.38
75 | RRIRRRPPRLPRPRPRPEFQPRP | -0.0288
76 | RRIRERPPRLPRPRPRPKISPRP | 0.000121
77 | RRIRKRPPRLPRPRPRPWCPPRP | 0.0532
78 | RRIRQRPPRLPRPRPRPDPYPRP | 0.032
79 | RRIRYRPPRLPRPRPRPSSAPRP | -0.197
80 | RRIRRRPPRLPRPRPRPSTKPRP | 0.068
81 | RRIRERPPRLPRPRPRPYVSPRP | -0.672
82 | RRIRRRPPRLPRPRPRPISNPRP | -0.269
83 | RRIRERPPRLPRPRPRPSHKPRP | -0.437
84 | RRIRVRPPRLPRPRPRPYWYPRP | -0.964
85 | RRIRERPPRLPRPRPRPGFPPRP | 0.176
86 | RRIRLRPPRLPRPRPRPHRAPRP | -0.0697
87 | RRIRNRPPRLPRPRPRPPLCPRP | 0.167
88 | RRIRIRPPRLPRPRPRPAYLPRP | -0.376

Row | Sequence | shrunken log2 fold change
89 | RRIRHRPPRLPRPRPRPWARPRP | -0.00568
90 | RRIRSRPPRLPRPRPRPSSLPRP | -0.255
91 | RRIRWRPPRLPRPRPRPENWPRP | 0.254
92 | RRIRMRPPRLPRPRPRPGQKPRP | 0.142
93 | RRIRNRPPRLPRPRPRPEIIPRP | -0.00607
94 | RRIRLRPPRLPRPRPRPRTFPRP | -0.0808
95 | RRIRQRPPRLPRPRPRPYQPPRP | -0.0272
96 | RRIRLRPPRLPRPRPRPGQTPRP | 0.277
97 | RRIRYRPPRLPRPRPRPDRGPRP | -0.213
98 | RRIRCRPPRLPRPRPRPFWPPRP | 0.161
99 | RRIRMRPPRLPRPRPRPPELPRP | 0.372
100 | RRIRNRPPRLPRPRPRPFVIPRP | -0.528
101 | RRIRMRPPRLPRPRPRPDDVPRP | -0.00192
102 | RRIRLRPPRLPRPRPRPSVRPRP | 0.0468
103 | RRIRPRPPRLPRPRPRPGWDPRP | 0.011
104 | RRIRDRPPRLPRPRPRPGATPRP | 1.01
105 | RRIRTRPPRLPRPRPRPPHNPRP | 0.0332
106 | RRIRDRPPRLPRPRPRPDPYPRP | 0.00859
107 | RRIRTRPPRLPRPRPRPGKTPRP | -0.0222
108 | RRIRLRPPRLPRPRPRPHPRPRP | 0.276
109 | RRIRIRPPRLPRPRPRPISAPRP | -0.0879

From the supplement of paper PMC9112550, “Optimization of the antimicrobial peptide Bac7 by deep mutational scanning” (BMC Biology, 2022)
